Experimental data: the supplement of paper PMC7125110
± gives the standard error. Fewer inactive variants are shown than the library holds.

B1: glmS ribozyme (parent)
chain: AUAAAAGCGCCAGAACUACAGAAAUGUAGUUGACGAGGAGGAGGUUUAUCGAAUUUUCGGCGGAUGCCUCCAAA

Key:
Settings in all cases: with glucosamine-6-phosphate
glucosamine-6-phosphate [1] = variants of: B1; assay: self-cleavage kobs at 40 uM GlcN6P; higher = faster cleavage; RNA array
Procedure, shortened: (§1)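 Glucosamine-6-phosphate, from 40 μM to 10 mM in HEPES/KCl/Mg(OAc)2 buffer, was flowed over sequenced MiSeq chips carrying barcoded ribozyme variants transcribed in situ by E. coli RNA polymerase. A hybridised Cy3 probe tracked the variants at 37 °C as tiles were imaged over ~14 h. kobs, kcat and KM were obtained by fitting normalised per-tile medians to exponential decays and then applying weighted Michaelis–Menten fits across concentrations.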

glucosamine-6-phosphate [2] = variants of: B1; assay: self-cleavage kobs at 2500 uM GlcN6P; higher = faster cleavage; RNA array
Procedure, shortened: as §1

glucosamine-6-phosphate [3] = variants of: B1; assay: self-cleavage kobs at 10000 uM GlcN6P; higher = faster cleavage; RNA array
Procedure, shortened: as §1

glucosamine-6-phosphate [4] = variants of: B1; assay: self-cleavage kobs at 640 uM GlcN6P; higher = faster cleavage; RNA array
Procedure, shortened: as §1

glucosamine-6-phosphate [5] = variants of: B1; assay: self-cleavage kobs at 160 uM GlcN6P; higher = faster cleavage; RNA array
Procedure, shortened: as §1

| Variant | self-cleavage kobs at 40 uM GlcN6P (glucosamine-6-phosphate [1]) [s⁻¹] | self-cleavage kobs at 2500 uM GlcN6P (glucosamine-6-phosphate [2]) [s⁻¹] | self-cleavage kobs at 10000 uM GlcN6P (glucosamine-6-phosphate [3]) [s⁻¹] | self-cleavage kobs at 640 uM GlcN6P (glucosamine-6-phosphate [4]) [s⁻¹] | self-cleavage kobs at 160 uM GlcN6P (glucosamine-6-phosphate [5]) [s⁻¹] |
| --- | --- | --- | --- | --- | --- |
| A15U U30G G41U | 0.000122 ± 2.7e-05 | 0.000705 ± 0.00027 | 0.0015 ± 0.00032 |  |  |
| A33U C58U C71A | < 1e-05 | < 1e-05 |  | < 1e-05 |  |
| C8G A14G U31C | < 1e-05 |  |  |  |  |
| G41U U46A U49C C71G | < 1e-05 |  |  |  |  |
| C11A C34A U47G | < 1e-05 | < 1e-05 |  |  |  |
| G60U G63U | < 1e-05 |  | < 1e-05 | < 1e-05 | < 1e-05 |
| U31G G35C G44U U54A | < 1e-05 | < 1e-05 | < 1e-05 |  |  |
| C10A G13A U30C G40A | < 1e-05 |  |  |  |  |
| G29C G44U | < 1e-05 |  |  | < 1e-05 | < 1e-05 |
| G7C A12G | < 1e-05 | < 1e-05 | < 1e-05 |  |  |
| A36C G63U | < 1e-05 |  |  | < 1e-05 |  |
| C8A C34U G35U G43A U45G U54C | < 1e-05 |  | < 1e-05 |  |  |
| C61A G62C | < 1e-05 |  | < 1e-05 | < 1e-05 | < 1e-05 |
| A6U G9U A15C U30A U49C | < 1e-05 |  |  |  |  |
| A12U U45A U49G C50U G63U U69C | < 1e-05 | < 1e-05 | < 1e-05 | < 1e-05 |  |
| G9A G40U C50G | < 1e-05 |  |  |  |  |
| C34G G59A G60U | < 1e-05 |  | < 1e-05 | < 1e-05 | < 1e-05 |
| U54G U69C | 0.00112 ± 0.00028 | 0.00133 ± 0.00041 | 0.00526 ± 0.0011 | 0.000689 ± 0.00017 | 0.000153 ± 6e-05 |
| A53U C67U | 0.000272 ± 2.9e-05 | 0.0104 ± 0.0027 | 0.0214 ± 0.0049 | 0.00132 ± 0.00019 | 0.000713 ± 8.9e-05 |
| G40U | 0.000216 ± 1.5e-05 | 0.00539 ± 0.00024 |  | 0.00199 ± 0.0002 | 0.00045 ± 1.9e-05 |
| G38U U55C C67G | < 1e-05 |  |  | < 1e-05 |  |
| A6G G60U | < 1e-05 |  |  | < 1e-05 | < 1e-05 |
| G29U C50G | 5.51e-05 ± 1.5e-05 |  |  | 5.49e-05 ± 1.4e-05 | 0.000992 ± 0.0003 |
| C10A C34A G38U | < 1e-05 |  |  |  |  |
| A12U A15U A52C | < 1e-05 |  | < 1e-05 |  |  |

| Variant | self-cleavage kobs at 40 uM GlcN6P (glucosamine-6-phosphate [1]) [s⁻¹] | self-cleavage kobs at 2500 uM GlcN6P (glucosamine-6-phosphate [2]) [s⁻¹] | self-cleavage kobs at 10000 uM GlcN6P (glucosamine-6-phosphate [3]) [s⁻¹] | self-cleavage kobs at 640 uM GlcN6P (glucosamine-6-phosphate [4]) [s⁻¹] | self-cleavage kobs at 160 uM GlcN6P (glucosamine-6-phosphate [5]) [s⁻¹] |
| --- | --- | --- | --- | --- | --- |
| A12G G60C | < 1e-05 | < 1e-05 | < 1e-05 | < 1e-05 | < 1e-05 |
| C10A A53G G60C | < 1e-05 |  |  |  |  |
| G41A C68U | < 1e-05 | 1.85e-05 ± 7.6e-06 | 2.09e-05 ± 8.7e-06 |  | < 1e-05 |
| G63C A64C | < 1e-05 |  | < 1e-05 |  | < 1e-05 |
| G13U U31C A64U | < 1e-05 |  |  |  |  |
| G37U A52U U56C | < 1e-05 | < 1e-05 |  | < 1e-05 |  |
| G13A G51A G62C | < 1e-05 |  |  |  |  |
| C11U A12U A64U | < 1e-05 |  |  |  |  |
| A12U C16A G51C | < 1e-05 |  |  |  |  |
| A33C U54A U57C | < 1e-05 | < 1e-05 |  |  |  |
| G29C G32U C34A C50G U65G C68G | 8.78e-05 ± 3.1e-05 | 0.000304 ± 7.2e-05 | 4.42e-05 ± 1.7e-05 | 8.65e-05 ± 2.9e-05 | 0.000304 ± 5.8e-05 |
| C11G U31A A33U A36C | < 1e-05 | < 1e-05 | < 1e-05 |  |  |
| A6C A52U C70U | < 1e-05 |  |  | < 1e-05 |  |
| A6C G44U C68G | < 1e-05 |  | < 1e-05 | < 1e-05 |  |
| G40U G41U U47G G62U G63U | < 1e-05 |  | < 1e-05 |  |  |
| U54C C67U | 0.000255 ± 4.3e-05 | 0.00157 ± 0.00051 | 0.0047 ± 0.0014 | 0.000928 ± 0.00027 | 0.000586 ± 0.00012 |
| A42G U47G G63U | < 1e-05 |  |  |  |  |
| C50G G62A C70U | 9.58e-05 ± 2.3e-05 | 0.000549 ± 0.00012 | 0.000104 ± 1.6e-05 | 0.000184 ± 4.7e-05 |  |
| C16A G44U | < 1e-05 |  |  | < 1e-05 | < 1e-05 |
| U31C G35A G37U | < 1e-05 |  |  |  |  |
| C8A C71A | < 1e-05 | < 1e-05 | < 1e-05 | < 1e-05 | < 1e-05 |
| G7C C11U A42G A64U | < 1e-05 |  | < 1e-05 |  |  |
| G32U C67U C70U | < 1e-05 |  |  |  |  |
| C11U A12U U65C C68G | < 1e-05 |  | < 1e-05 |  |  |
| G7C A42C C61U | < 1e-05 |  |  |  |  |
